# Results published in PMC5503513, “Tandem hnRNP A1 RNA recognition motifs act in concert to repress the splicing of survival motor neuron exon 7”.
# What was measured:
# hnRNP A1 RRM1 [1] = target: T1, hnRNP A1 RRM1 (UniProt P09651 2-97); experiment: ITC; ITC: 10 mM NaPi pH 6.5, 10 mM 2-mercaptoethanol, 30 C, protein titrated into RNA; NMR: 10 mM NaPi pH 6.5, 1 mM DTT (303 K stated for UP1-R140A:ISS-N1-u25g); settings: protein: recombinant; single strand
# hnRNP A1 RRM2 E176Q [2] = target: T2, hnRNP A1 RRM2 E176Q (UniProt P09651 95-196, E176Q); experiment: as above; settings: protein: recombinant; single strand
# hnRNP A1 RRM2 R140A [3] = target: T3, hnRNP A1 RRM2 R140A (UniProt P09651 95-196, R140A); experiment: as above; settings: protein: recombinant; single strand
# hnRNP A1 RRM2 = hnRNP A1 RRM2 (UniProt P09651 95-196); experiment: as above; settings: protein: recombinant; single strand
# UP1 r1R2 [4] = target: UP1 r1R2 (UniProt P09651 1-196, F17A;F59A); experiment: as above; settings: protein: recombinant; single strand
# hnRNP A1 RRM1 D42A [5] = target: T4, hnRNP A1 RRM1 D42A (UniProt P09651 2-97, D42A); experiment: as above; settings: protein: recombinant; single strand
# hnRNP A1 RRM1 F23A [6] = target: T5, hnRNP A1 RRM1 F23A (UniProt P09651 2-97, F23A); experiment: as above; settings: protein: recombinant; single strand
# UP1 R1r2 [7] = target: UP1 R1r2 (UniProt P09651 1-196, F108A;F150A); experiment: as above; settings: protein: recombinant; single strand
# hnRNP A1 RRM1 R92A [8] = target: T6, hnRNP A1 RRM1 R92A (UniProt P09651 2-97, R92A); experiment: ITC; range, no saturation; ITC: 10 mM NaPi pH 6.5, 10 mM 2-mercaptoethanol, 30 C, protein titrated into RNA; NMR: 10 mM NaPi pH 6.5, 1 mM DTT (303 K stated for UP1-R140A:ISS-N1-u25g); settings: protein: recombinant; single strand
# hnRNP A1 RRM1 [9] = target: T1, hnRNP A1 RRM1; experiment: ITC; first listed measurement; ITC: 10 mM NaPi pH 6.5, 10 mM 2-mercaptoethanol, 30 C, protein titrated into RNA; NMR: 10 mM NaPi pH 6.5, 1 mM DTT (303 K stated for UP1-R140A:ISS-N1-u25g); settings: protein: recombinant; single strand
# hnRNP A1 RRM1 F23A [10] = target: T5, hnRNP A1 RRM1 F23A; experiment: ITC; second listed measurement; ITC: 10 mM NaPi pH 6.5, 10 mM 2-mercaptoethanol, 30 C, protein titrated into RNA; NMR: 10 mM NaPi pH 6.5, 1 mM DTT (303 K stated for UP1-R140A:ISS-N1-u25g); settings: protein: recombinant; single strand
# hnRNP A1 UP1 r1R2 [11] = target: hnRNP A1 UP1 r1R2 (Homo sapiens, UniProt P09651 2-196, F17A;F59A); experiment: ITC; 10 mM sodium phosphate pH 6.5, 10 mM 2-mercaptoethanol, no added salt, 30 C; RNA 5-10 uM in the cell; 1:1 fit; settings: extra N-terminal Gly-Gly in PDB 2LYV (left out)
# hnRNP A1 RRM2 R140A [12] = target: T3, hnRNP A1 RRM2 R140A; experiment: as above; settings: none in PDB 5MPL
# hnRNP A1 RRM1 D42A [13] = target: T4, hnRNP A1 RRM1 D42A; experiment: as above; settings: one extra N-terminal Ala in PDB 5MPG (left out)
# hnRNP A1 UP1 R1r2 [14] = target: hnRNP A1 UP1 R1r2 (Homo sapiens, UniProt P09651 2-196, F108A;F150A); experiment: as above; settings: extra N-terminal Gly-Gly in PDB 2LYV (left out)
# hnRNP A1 RRM1 R92A [15] = target: T6, hnRNP A1 RRM1 R92A; experiment: as above; settings: one extra N-terminal Ala in PDB 5MPG (left out)
# hnRNP A1 RRM1 F23A [16] = target: T5, hnRNP A1 RRM1 F23A; experiment: as above; settings: one extra N-terminal Ala in PDB 5MPG (left out)
# hnRNP A1 RRM1 R55A = hnRNP A1 RRM1 R55A (UniProt P09651 2-97, R55A); experiment: as above; settings: one extra N-terminal Ala in PDB 5MPG (left out)
# hnRNP A1 RRM2 Y167F = hnRNP A1 RRM2 Y167F (UniProt P09651 95-196, Y167F); experiment: ITC; ITC: 10 mM NaPi pH 6.5, 10 mM 2-mercaptoethanol, 30 C, protein titrated into RNA; NMR: 10 mM NaPi pH 6.5, 1 mM DTT (303 K stated for UP1-R140A:ISS-N1-u25g); settings: protein: recombinant; single strand
# hnRNP A1 RRM2 M186A [17] = target: T7, hnRNP A1 RRM2 M186A (UniProt P09651 95-196, M186A); experiment: as above; settings: protein: recombinant; single strand
# hnRNP A1 RRM1 [18] = target: T1, hnRNP A1 RRM1; experiment: ITC; range, no saturation; ITC: 10 mM NaPi pH 6.5, 10 mM 2-mercaptoethanol, 30 C, protein titrated into RNA; NMR: 10 mM NaPi pH 6.5, 1 mM DTT (303 K stated for UP1-R140A:ISS-N1-u25g); settings: protein: recombinant; single strand
# hnRNP A1 RRM1 D42A [19] = target: T4, hnRNP A1 RRM1 D42A; experiment: as above; settings: protein: recombinant; single strand
# hnRNP A1 RRM1 [20] = target: T1, hnRNP A1 RRM1; experiment: ITC; 10 mM sodium phosphate pH 6.5, 10 mM 2-mercaptoethanol, no added salt, 30 C; RNA 5-10 uM in the cell; 1:1 fit; settings: one extra N-terminal Ala in PDB 5MPG (left out)
# hnRNP A1 RRM2 E176Q [21] = target: T2, hnRNP A1 RRM2 E176Q; experiment: as above; settings: none in PDB 5MPL
# hnRNP A1 RRM2 M186A [22] = target: T7, hnRNP A1 RRM2 M186A; experiment: as above; settings: none in PDB 5MPL
# T1 sequence (P09651 2-97): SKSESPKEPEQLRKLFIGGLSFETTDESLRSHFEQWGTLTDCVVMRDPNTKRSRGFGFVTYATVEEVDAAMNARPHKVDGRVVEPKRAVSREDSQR
# T6 sequence (P09651 2-97 R92A): as the sequence (P09651 2-97) above, with R91A counted along it
# T2 sequence (P09651 95-196 E176Q): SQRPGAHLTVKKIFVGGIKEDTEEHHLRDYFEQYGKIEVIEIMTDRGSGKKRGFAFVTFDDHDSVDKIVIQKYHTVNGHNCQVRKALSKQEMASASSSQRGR
# T5 sequence (P09651 2-97 F23A): as the sequence (P09651 2-97) above, with F22A counted along it
# T3 sequence (P09651 95-196 R140A): as the sequence (P09651 95-196 E176Q) above, with R46A, Q82E counted along it
# T4 sequence (P09651 2-97 D42A): as the sequence (P09651 2-97) above, with D41A counted along it
# T7 sequence (P09651 95-196 M186A): as the sequence (P09651 95-196 E176Q) above, with Q82E, M92A counted along it
# Chain of hnRNP A1 UP1 R1r2 (P09651 2-196 F108A/F150A): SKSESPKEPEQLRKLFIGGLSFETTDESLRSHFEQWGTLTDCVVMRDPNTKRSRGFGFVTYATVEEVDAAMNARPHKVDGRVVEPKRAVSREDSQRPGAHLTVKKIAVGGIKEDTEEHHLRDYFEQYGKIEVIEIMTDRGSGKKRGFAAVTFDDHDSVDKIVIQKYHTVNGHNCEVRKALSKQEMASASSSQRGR
# Chain of hnRNP A1 UP1 r1R2 (P09651 2-196 F17A/F59A): as the sequence (P09651 2-196 F108A/F150A) above, with F16A, F58A, A107F, A149F counted along it
# Chain of UP1 r1R2 (P09651 1-196 F17A/F59A): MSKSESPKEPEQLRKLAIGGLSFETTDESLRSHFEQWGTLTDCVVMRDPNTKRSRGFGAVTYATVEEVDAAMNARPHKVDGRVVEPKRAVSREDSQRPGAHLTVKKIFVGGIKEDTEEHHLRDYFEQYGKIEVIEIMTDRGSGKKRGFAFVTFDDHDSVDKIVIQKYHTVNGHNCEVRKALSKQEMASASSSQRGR
# Chain of hnRNP A1 RRM2 (P09651 95-196): as the sequence (P09651 95-196 E176Q) above, with Q82E counted along it
# Chain of hnRNP A1 RRM1 R55A (P09651 2-97 R55A): as the sequence (P09651 2-97) above, with R54A counted along it
# Chain of hnRNP A1 RRM2 Y167F (P09651 95-196 Y167F): as the sequence (P09651 95-196 E176Q) above, with Y73F, Q82E counted along it
# Chain of UP1 R1r2 (P09651 1-196 F108A/F150A): as the sequence (P09651 1-196 F17A/F59A) above, with A17F, A59F, F108A, F150A counted along it
Binder,Kd (hnRNP A1 RRM2 E176Q [2]) [nM],Kd (hnRNP A1 RRM2 R140A [3]) [nM],Kd (hnRNP A1 RRM2) [nM],Kd (UP1 r1R2 [4]) [nM],Kd (hnRNP A1 UP1 r1R2 [11]) [nM],Kd (hnRNP A1 RRM2 R140A [12]) [nM],Kd (hnRNP A1 RRM1 D42A [13]) [nM],Kd (hnRNP A1 UP1 R1r2 [14]) [nM],Kd (hnRNP A1 RRM1 R92A [15]) [nM],also measured
UUAGGUC (ssRNA),116 ± 39,195 ± 12,64 ± 8,56 ± 4,56.2 ± 4,195 ± 12,787 ± 42,45 ± 2,~2850,Kd (hnRNP A1 RRM1 [1]): 288 ± 16 nM; Kd (hnRNP A1 RRM1 D42A [5]): 787 ± 42 nM; Kd (hnRNP A1 RRM1 F23A [6]): 225 ± 13 nM; Kd (UP1 R1r2 [7]): 47 ± 2 nM; Kd (hnRNP A1 RRM1 R92A [8]): ~2240 nM; Kd (hnRNP A1 RRM1 [9]): 292 ± 17 nM; Kd (hnRNP A1 RRM1 F23A [10]): 193 ± 11 nM; Kd (hnRNP A1 RRM1 F23A [16]): 209 ± 13 nM; Kd (hnRNP A1 RRM1 R55A): > 10000 nM
UUAGUU (ssRNA),286 ± 12,433 ± 26,125 ± 9,142 ± 9,142 ± 9,433 ± 26,~2690,105 ± 8,> 10000,Kd (hnRNP A1 RRM2 Y167F): 118 ± 9 nM; Kd (hnRNP A1 RRM2 M186A [17]): 253 ± 15 nM; Kd (hnRNP A1 RRM1 [18]): ~5200 nM; Kd (hnRNP A1 RRM1 D42A [19]): ~2240 nM; Kd (hnRNP A1 RRM1 [20]): ~5990 nM; Kd (hnRNP A1 RRM2 E176Q [21]): 286 ± 12 nM; Kd (hnRNP A1 RRM2 M186A [22]): 253 ± 15 nM
